According to paper PMC8049779 (Biochemistry, 2020):

T1: LmFPPS (Leishmania major, UniProt Q4QBL1)
T1 sequence (Q4QBL1 1-362): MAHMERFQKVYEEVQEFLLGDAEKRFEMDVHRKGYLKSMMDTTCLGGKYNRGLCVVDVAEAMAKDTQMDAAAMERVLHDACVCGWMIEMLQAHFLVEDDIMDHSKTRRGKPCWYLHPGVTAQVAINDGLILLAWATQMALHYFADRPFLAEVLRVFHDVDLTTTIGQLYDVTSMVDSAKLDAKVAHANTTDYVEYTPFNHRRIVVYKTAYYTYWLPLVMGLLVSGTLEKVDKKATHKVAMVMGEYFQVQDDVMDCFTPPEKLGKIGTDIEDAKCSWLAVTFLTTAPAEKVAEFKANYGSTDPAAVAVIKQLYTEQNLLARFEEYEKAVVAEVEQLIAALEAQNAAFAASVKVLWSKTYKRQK


Assays:
LmFPPS = target: T1, LmFPPS; experiment: SPR, steady-state affinity, protein immobilized on CM5 chip; type: binding
crystal structure = target: the molecule itself; experiment: crystal structure

| Molecule | Kd (LmFPPS) [µM] | binding result (crystal structure) |
| --- | --- | --- |
| CC(C)=CCC/C(C)=C/CC/C(C)=C/CO[P@@](=O)(O)OP(=O)(O)O [FPP] | 36.6 |  |
| CC(C)=CCC/C(C)=C/COP(=O)(O)OP(=O)(O)O [GPP] | 0.049 |  |
| E97Y-LmFPPS (Leishmania major farnesyl diphosphate synthase, E97Y mutant) (enzyme) MAHMERFQKVYEEVQEFLLGDAEKRFEMDVHRKGYLKSMMDTTCLGGKYNRGLCVVDVAEAMAKDTQMDAAAMERVLHDACVCGWMIEMLQAHFLVYDDIMDHSKTRRGKPCWYLHPGVTAQVAINDGLILLAWATQMALHYFADRPFLAEVLRVFHDVDLTTTIGQLYDVTSMVDSAKLDAKVAHANTTDYVEYTPFNHRRIVVYKTAYYTYWLPLVMGLLVSGTLEKVDKKATHKVAMVMGEYFQVQDDVMDCFTPPEKLGKIGTDIEDAKCSWLAVTFLTTAPAEKVAEFKANYGSTDPAAVAVIKQLYTEQNLLARFEEYEKAVVAEVEQLIAALEAQNAAFAASVKVLWSKTYKRQK |  | binds |
| T164W-LmFPPS (Leishmania major farnesyl diphosphate synthase, T164W mutant) (enzyme) MAHMERFQKVYEEVQEFLLGDAEKRFEMDVHRKGYLKSMMDTTCLGGKYNRGLCVVDVAEAMAKDTQMDAAAMERVLHDACVCGWMIEMLQAHFLVEDDIMDHSKTRRGKPCWYLHPGVTAQVAINDGLILLAWATQMALHYFADRPFLAEVLRVFHDVDLTTWIGQLYDVTSMVDSAKLDAKVAHANTTDYVEYTPFNHRRIVVYKTAYYTYWLPLVMGLLVSGTLEKVDKKATHKVAMVMGEYFQVQDDVMDCFTPPEKLGKIGTDIEDAKCSWLAVTFLTTAPAEKVAEFKANYGSTDPAAVAVIKQLYTEQNLLARFEEYEKAVVAEVEQLIAALEAQNAAFAASVKVLWSKTYKRQK |  | binds |
| T164Y-LmFPPS (Leishmania major farnesyl diphosphate synthase, T164Y mutant) (enzyme) MAHMERFQKVYEEVQEFLLGDAEKRFEMDVHRKGYLKSMMDTTCLGGKYNRGLCVVDVAEAMAKDTQMDAAAMERVLHDACVCGWMIEMLQAHFLVEDDIMDHSKTRRGKPCWYLHPGVTAQVAINDGLILLAWATQMALHYFADRPFLAEVLRVFHDVDLTTYIGQLYDVTSMVDSAKLDAKVAHANTTDYVEYTPFNHRRIVVYKTAYYTYWLPLVMGLLVSGTLEKVDKKATHKVAMVMGEYFQVQDDVMDCFTPPEKLGKIGTDIEDAKCSWLAVTFLTTAPAEKVAEFKANYGSTDPAAVAVIKQLYTEQNLLARFEEYEKAVVAEVEQLIAALEAQNAAFAASVKVLWSKTYKRQK |  | binds |
